The target in the data set is XPA (UniProt P23025 1-273). The experiment in a line: EMSA; XPA pre-incubated with short PAR (16-20-mer), no effect on binding; EMSA: 25 mM Hepes-KOH pH 8.3, 30 mM KCl, 0.4 mM MgCl2, 1 mM EDTA, 10% glycerol, 45 ug/mL BSA, 0.9 mM DTT; 30 min; temperature not stated. Poly(ADP-ribose) overlay binding (XPA, H1, BSA, PBM peptides) not listed: PAR is not DNA/RNA. Conditions: protein: recombinant; tags: His-tag; label: biotin on the 19-mer; duplex of 19-mer and 25-mer with loop on one strand.
XPA, sequence (P23025 whole entry): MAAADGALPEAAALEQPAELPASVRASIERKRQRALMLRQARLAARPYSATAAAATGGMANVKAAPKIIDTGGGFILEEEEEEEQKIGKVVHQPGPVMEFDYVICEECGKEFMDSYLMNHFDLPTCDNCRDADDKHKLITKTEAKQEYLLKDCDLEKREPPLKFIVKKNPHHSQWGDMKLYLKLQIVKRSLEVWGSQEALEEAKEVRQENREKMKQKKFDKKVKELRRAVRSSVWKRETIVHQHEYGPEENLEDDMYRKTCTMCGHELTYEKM

B1: loop-containing duplex (19-mer annealed with 25-mer) (dsDNA)
DNA 1: ACCACCCTTCGAACCACAC
DNA 2: GTGTGGTTCGCGCGCGAAGGGTGGT
Consider B1, for which the binding result was “binds”.
